Laboratory results: patent publication US20200223910A1 (STERLING IP, published 2020)
Substitutions are numbered along the chain they refer to. Names and notes keep the numbering of the source.

B1: IgG4 165_13_C3* (antibody, V domains shown)
VH: QVQLVESGGGLVQPGRSLRLSCAASGFTFDDYAMHWVRQAPGKGLEWVSGISGSGGSTYYADSVKGRFTISRDNAKNSLYLQMNSLRAEDTALYYCAKSYQSDEDAFDIWGQGTMVTVSS
VL: DIQMTQSPSSLSASVGDRVTITCRASQYIQGFLNWYQQKPGKAPKLLIYDASNLETGVPSRFSGSGSGTDFTLTISSLQPEDFATYYCQQSYSTPQTFGQGTKVDIKR
notes: Hinge-modified IgG4 (S241P); neither is tied by name to C3* as tested; also called NSCT-141
B2: 165_13_D1 scFv (scFv, V domains shown)
VH: B1 VH with S99G, Y100T, Q101R, S102G, D103E, E104G, A106T
VL: B1 VL with S9A, S12P, A13T, S14P
notes: scFv in E. coli supernatant
B3: 165_13_A4 scFv (scFv, V domains shown)
VH: B1 VH with S99D, Y100K, Q101Y, S102P, D103V, E104L, A106T
VL: B1 VL with S9A, S12P, A13T, S14P
notes: scFv in E. coli supernatant
B4: 165_13_B1 scFv (scFv, V domains shown)
VH: B1 VH with S99V, Y100M, Q101S, D103M
VL: B1 VL with S9A, S12P, A13T, S14P
notes: scFv in E. coli supernatant (pSANG10, FLAG-tagged)
B5: 180_11_F5 scFv (scFv, V domains shown)
VH: B1 VH with S99V, Y100M, Q101R, S102T, D103G, E104L, A106T
VL: B1 VL with S9A, S12P, A13T, S14P
notes: scFv in E. coli supernatant
B6: 165_13_B3 scFv (scFv, V domains shown)
VH: B1 VH with S99A, Y100L, Q101A, S102R, D103G, E104H, A106T
VL: B1 VL with S9A, S12P, A13T, S14P
notes: scFv in E. coli supernatant
B7: 165_13_C3 scFv (scFv, V domains shown)
VH: B1 VH
VL: B1 VL with S9A, S12P, A13T, S14P
notes: scFv in E. coli supernatant
B8: 165_13_B6 scFv (scFv, V domains shown)
VH: B1 VH with S99G, Y100Q, Q101K, S102G, D103E, E104G, A106T
VL: B1 VL with S9A, S12P, A13T, S14P
notes: scFv in E. coli supernatant
B9: 165_13_E1 scFv (scFv, V domains shown)
VH: B1 VH with S99D, Y100I, Q101S, S102A, D103V, E104M, A106V, F107P, D108Q, I109T
VL: B1 VL with S9A, S12P, A13T, S14P
notes: scFv in E. coli supernatant
B10: 165_13_D4 scFv (scFv, V domains shown)
VH: B1 VH with S99G, Y100T, Q101V, S102G, D103E, E104G, A106T
VL: B1 VL with S9A, S12P, A13T, S14P
notes: scFv in E. coli supernatant

Assays:
human TNC rCd4-His-FBG [1] = biological target: T1, human TNC rCd4-His-FBG (rat; human, UniProt P05540 209-391; P24821 1974-2201, limits assumed); experiment: SPR BIAcore T200, 37 C, IgG4 captured on anti-human Fc, rCd4-His-FBG injected, 1:1 fit
T1 construct: domain: domains 3 and 4;domain: FBG; C-terminal FBG fusion made in HEK293F cells; biotinylated in the ELISA and HTRF assays; also called Hu TNC; hTNC; not shown: 6His tag
T1 sequence (chain (part 1 of 2), looked up): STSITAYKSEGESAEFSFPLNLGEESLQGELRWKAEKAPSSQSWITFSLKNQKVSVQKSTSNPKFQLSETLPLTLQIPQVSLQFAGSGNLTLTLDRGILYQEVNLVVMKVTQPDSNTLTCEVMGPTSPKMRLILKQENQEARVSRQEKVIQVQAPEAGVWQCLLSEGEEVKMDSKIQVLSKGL
T1 sequence (chain (part 2 of 2), looked up): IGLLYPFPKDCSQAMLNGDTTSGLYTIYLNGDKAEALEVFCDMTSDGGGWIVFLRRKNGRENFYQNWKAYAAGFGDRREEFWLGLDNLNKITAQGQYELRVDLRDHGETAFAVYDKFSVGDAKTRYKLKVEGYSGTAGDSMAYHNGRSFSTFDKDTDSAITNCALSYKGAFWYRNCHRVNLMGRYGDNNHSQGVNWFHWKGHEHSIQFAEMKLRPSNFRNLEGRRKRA
Procedure: (§1) For the kinetic assay ˜1,500-1,900 response units (RU) of anti-human Fc IgG (GE, BR-1008-39) was immobilised in all flow-cells (FC1-4) on a Series S CM5 sensor chip (BR-1005-30) using EDC/NHS cross-linking chemistry according to the amine coupling kit protocol (GE, BR-1000-50). […] Antibody capture levels ranged typically from 70 RU (for TNR interactions) to 90 RU (for TNC interactions).
(§2) A 1:1 dilution series of antigen in HBS-P+ (30 nM of human and mouse TNC rCd4-His-FBG and 480 nM of human TNR rCd4-His-FBG) was injected with a flow-path via the reference flow cell (FC1 and FC3, respectively) and the antibody capture flow cell (FC2 and FC4, respectively) with a flow rate of 30 μl/min. The association and dissociation phases were measured over a 3.5 and 30 min time period, respectively, for human and mouse TNC rCd4-His-FBG, and 2 and 8 min time period for human TNR rCd4-His-FBG. For interaction analysis with human and mouse TNC rCD4-His-FBG regeneration of free capture antibody surfaces after each antigen injection was done by injection of 3 M MgCl 2 for 60 s and for each sample injection a fresh NSCT antibody was captured. Carry over of antigen was prohibited by an extra needle wash step with 50% DMSO before every injection. Runs were performed at the more physiologically relevant temperature of 37° C.
(§3) Kinetic parameters were determined by reference cell subtraction and fitting the sensorgram experimental data to a 1:1 interaction model using the BIAcore T200 Evaluation software version 2.0.

mouse TNC rCd4-His-FBG [2] = biological target: T2, mouse TNC rCd4-His-FBG (rat; mouse, UniProt P05540 209-391; Q80YX1 1883-2110, limits assumed); experiment: as above
T2 construct: domain: domains 3 and 4;domain: FBG; Biotinylated in the capture ELISA; also called Mu TNC; mTNC; not shown: 6His tag
T2 sequence (chain (part 1 of 2), looked up): T1 sequence (chain (part 1 of 2), looked up)
T2 sequence (chain (part 2 of 2), looked up): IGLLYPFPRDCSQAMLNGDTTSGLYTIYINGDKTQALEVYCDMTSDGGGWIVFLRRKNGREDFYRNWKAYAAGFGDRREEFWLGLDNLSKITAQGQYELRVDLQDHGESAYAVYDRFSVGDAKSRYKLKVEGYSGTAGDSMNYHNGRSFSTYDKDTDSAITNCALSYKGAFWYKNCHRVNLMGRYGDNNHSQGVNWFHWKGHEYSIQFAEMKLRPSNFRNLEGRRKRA
Procedure: as §1, §2, §3

human TNR rCd4-His-FBG [3] = biological target: T3, human TNR rCd4-His-FBG (rat; human, UniProt P05540 209-391; Q92752 1128-1358, limits assumed); experiment: as above
T3 construct: domain: domains 3 and 4;domain: FBG; also called Hu TNR; hTNR; not shown: 6His tag
T3 sequence (chain (part 1 of 2), looked up): T1 sequence (chain (part 1 of 2), looked up)
T3 sequence (chain (part 2 of 2), looked up): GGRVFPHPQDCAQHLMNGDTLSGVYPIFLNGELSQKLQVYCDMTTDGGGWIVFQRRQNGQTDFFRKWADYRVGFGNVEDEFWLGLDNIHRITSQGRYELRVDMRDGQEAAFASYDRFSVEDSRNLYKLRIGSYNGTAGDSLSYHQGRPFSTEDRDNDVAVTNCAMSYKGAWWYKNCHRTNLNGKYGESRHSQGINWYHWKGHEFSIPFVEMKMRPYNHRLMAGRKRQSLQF
Procedure: as §1, §2, §3

human TNC rCd4-His-FBG [4] = biological target: T1, human TNC rCd4-His-FBG; experiment: SPR BIAcore T200, 37 C, IgG4 captured on anti-human Fc, rCd4-His-FBG injected, 1:1 fit; relative to theoretical Rmax
Procedure: as §1, §2, §3

mouse TNC rCd4-His-FBG [5] = biological target: T2, mouse TNC rCd4-His-FBG; experiment: as above
Procedure: as §1, §2, §3

human TNR rCd4-His-FBG [6] = biological target: T3, human TNR rCd4-His-FBG; experiment: as above
Procedure: as §1, §2, §3

mouse TNC rCd4-His-FBG [7] = biological target: T2, mouse TNC rCd4-His-FBG; experiment: anti-FLAG capture DELFIA ELISA, scFv supernatant, biotinylated mouse rCd4-His-FBG
Procedure: E. coli clones harbouring scFv pSANG10 expression plasmids were induced in 96-well plates with auto-induction media as described previously (Schofield et al, 2007). E. coli supernatants were harvested for ELISA assays. ELISA used the DELFIA (dissociation enhanced lanthanide fluorescent immunoassay) system with Europium-labelled anti-FLAG antibody (Sigma, Aldrich, UK). Black immunosorb plates (Nunc) were coated overnight with anti-FLAG M2 antibody (Sigma, F3165, 5 μg/ml in PBS, 50 μl per well), in wells blocked by the addition of 2% milk powder, PBS (PBS-M, 300 μl per well). Plates were washed three times with PBS-T (PBS, 0.1% Tween-20) and three times with PBS followed by the addition of a 1:2 dilution of 96-well auto-induction culture supernatants containing expressed scFv in PBS-M (50 μl per well). The plates were incubated for 1 h, washed as above and biotinylated mouse or human rCd4-His-FBG ([…] in PBS-M, 50 μl) added to each well. Plates were incubated for a further 1 h, washed and Strepravidin-Eu added (Perkin Elmer, 1 μg/ml, PBS-M, 50 μl), incubated for 30 min, washed and DELFIA enhancement solution added (50 μl) and plates read on a Perkin Elmer Fusion plate reader (excitation=320 nm, emission 620 nm).

human TNC rCd4-His-FBG [8] = biological target: T1, human TNC rCd4-His-FBG; experiment: HTRF competition, scFv supernatant; competitor d2-labelled B12 IgG
Procedure: IgG antibodies were labelled using the d2 labelling kit (CisBio, 62D2DPEA) as directed by the manufacturer. Streptavidin europium cryptate (CisBio, 610SAKLA, Lot#25C) was used at a final concentration of 1.8 ng active moiety (SA) per 20 μl reaction as recommended by the manufacturer. Biotinylated rCd4-His-FBG was prepared using EZ-link Sulfo-NHS-LC-Biotin reagent (Thermo Scientific, 21327) the extent of biotinylation was quantified using biotinylation fluorescence quantitation kit (Thermo Scientific, 46610). Where appropriate, supernatants containing scFv (prepared as described above for ELISA assays) were added to the 384-well assay plate at a final dilution of 1/20 (i.e. ⅕ dilution in assay buffer followed by addition of 5 μl diluted sample to the 20 μl FRET assay). The concentrations of d2-labelled B12 IgG used for screening were 1.25 nM. Unless otherwise stated, biotinylated rCd4-His-FBG (biotin:protein ratio=1.8:1) was present at either 2.2 nM (in assays using the 2A5 IgG antibody) or 1 nM (in experiments using B12 IgG). Samples were incubated for approximately 1 h at room temperature and the FRET signal was determined using a BMG Pherastar instrument: excitation=320 nm; emission=620 nm and 665 nm; integration start time=60 μs; integration time=500 μs; 100 flashes per well. For competition assays containing culture supernatant, biotinylated rCd4-His-FBG antigen was pre-incubated with streptavidin europium cryptate for 45 min prior to addition of reagents to the assay plate. All FRET signals are presented as ΔR, where R =(E665/E620×104) and ΔR =(Rsample-Rbackground fluorescence).
Culture supernatants containing unlabelled scFv clones from affinity selected mutant libraries were tested for inhibition of the interaction between FBG and the fluorophore-labelled parental IgG antibody. […] The parental clones, expressed as scFvs in parallel with the affinity matured clones, were used as benchmarks.

| Binder | fold improvement for mouse FBG binding against parent B12 (mouse TNC rCd4-His-FBG [7]) [fold] | % inhibition of HTRF signal (human TNC rCd4-His-FBG [8]) [%] | other results |
| --- | --- | --- | --- |
| B1 | – | – | Kd (human TNC rCd4-His-FBG [1]): 0.443 nM; koff (human TNC rCd4-His-FBG [1]): 0.0041 s⁻¹; kon (human TNC rCd4-His-FBG [1]): 9.35e+06 M⁻¹ s⁻¹; Kd (mouse TNC rCd4-His-FBG [2]): 0.67 nM; koff (mouse TNC rCd4-His-FBG [2]): 0.0042 s⁻¹; kon (mouse TNC rCd4-His-FBG [2]): 6.28e+06 M⁻¹ s⁻¹; Kd (human TNR rCd4-His-FBG [3]): 53.1 nM; koff (human TNR rCd4-His-FBG [3]): 0.058 s⁻¹; kon (human TNR rCd4-His-FBG [3]): 1.11e+06 M⁻¹ s⁻¹; SA, surface activity (human TNC rCd4-His-FBG [4]): 297%; SA, surface activity (mouse TNC rCd4-His-FBG [5]): 304%; SA, surface activity (human TNR rCd4-His-FBG [6]): 233% |
| B2 | ≥ 4 | – | – |
| B3 | ≥ 4 | ≥ 91 | – |
| B4 | ≥ 4 | – | – |
| B5 | ≥ 4 | ≥ 91 | – |
| B6 | ≥ 4 | ≥ 91 | – |
| B7 | ≥ 4 | ≥ 91 | – |
| B8 | ≥ 4 | – | – |
| B9 | ≥ 4 | ≥ 91 | – |
| B10 | ≥ 4 | ≥ 91 | – |
